Test results: the DeepSol protein solubility set

Test: soluble on expression in E. coli; label from the status in PepcDB or PDB records

| Sequence | soluble on expression in E. coli |
| --- | --- |
| MQPERYVWAKYFWEQARDANGVARRHLGDTTRNNGAPTVGSPFVALCGIDVTPHPEDTDTARGTCFAPACMVCTTLFARATGWSAGAIGNLIQTFQWTNNDVRQLGLALGMTASQTRRQIEQWTQEADKVNKARHTAKQQKAAGR | not soluble |
| MMKPNIDFKRLKAYVQANGSYSLVVKGDSIEVHFSPNFPEAIPHLPDNLPVEHIMYGKVENGIVYFYRFETISSFGTTYNDLTDDDPIMEWLKYI | not soluble |
| YSSRRFEKKKIHFPSRRRRFVDYLINAQRSEKLELNSQQQLGNRHSGSSELVKSESRKKAKSSNQKEKVKPEKRGRATATTGAGPTIDQSLKGPTGTTMASERGMTMTQTIQKEKSIKKKKSEKDERKRAKEVGNEEAAADNQTVTQGNDTTTTQGPSSMFPADLSKKHRLGLQKVKERAVEVPEKKKTKNNE | not soluble |
| MSLDEEKVGTEVPDPEISKMLFSEFCKSDGIGVSDVTKEEEFRYEDAWLTGYTYTQEVSIADLTEIISHSLTIQYGNNRSSVTFTDEIGTERKYTLNEEGYATQCEYASLDQKRQYTFLYTDGYLTQVNEKIMPREGSSDAVVAHTLSLQYDKGDLISTISPSLPYESSTGYGKLQTNYEAGEDINYYRLPCMLVADTYPLSFHREALFAGMLGKPTQHLTTASYPEKTSDTYTERTEYTYSFDKNKKPVSLKVSTKYGNGKSISYLNRTISITIEGHHHHHH | soluble |
| MGSDKIHHHHHHMRRLRKALAAGSFLFRGTFVQSDPIPARARRPIMMLEHIQARTHHARRGALRNSFTYGVDYVLTDLGPAGPLLISRNRFNLWSLWDHRHGGARDNGHGVHWFRSLLQERGLATENAQLLLLTQPSFLWFHFNPVSFWIALVDGTPRAFVAEVNSTFGQRHCYFCARDGFAPIRKSDTLIAEKLMHVSPFQRIAGHYAFNFGMTDTQIDIRISFENGDHGVLATLSGERRPATSASLAWAAIRRPLGAARVLALIHWQAAILYLKRAPFLKKQHPPEHLVSDGYDLRGTKE | not soluble |
| MAHHHHHHMGGYFSKDLEECLRNEKRNLNRSIRELEREIFKLTNEQSKIEKNIKINAKRNGDTSTVRTLARDYISIKKTIAKYNKLKSHLFSMKVKLQSVKSSEQLGRSLTEINRVIKRVNGYIKLTSLNKSINDFHKENNEVSLKEDMLDDLFEAFDYDSQMVAEEEELVTKVLEGMGIQMNAKLEDIPSPGELPKTQVDHLGVSDLEARINNLRLGKS | soluble |
| MGSDKIHHHHHHMEFEFCVQDPTDPGTRYLYEAIIGAAADATTWRGMYAFATRGGVDQLIEDPVVHEFMRRGGEIDLIVGIDAVTNRQTLERMQALEERHEHFHPKVFWNTTGGLFHPKISHFGYADGRTKLILGSGNLTPGGLRHNFEGYSVISGGRREAIDLSSLDAFIARHEADIRPIDQAALDRAALNIVRPVAALPGPRAPQLRPPRAVSREAVLDRILLAQVPAAGGRWSQVHFNTQITEQYFRVTDVATQRVYLTSIDAAGLRGEEEVRPVVFSQANGNHKIEIAAAKGLDYPDSPPLLVFRERQVRCFDYMLLMPDSPGYGELLGLSQALPTIGRGLRRAITDMATLSQAWPACPLLTAGDALDQTI | not soluble |
| MGHHHHHHGGHMSLLTFVGLGLWDVKDISVKGLEAVREADEVYVEYYTSKLLSSIEEMEEFFGKRVVELERSDLEENSFRLIERAKSKSVVLLVPGDPMVATTHSAIKLEAERKGVKTRIIHGASISTAVCGLTGLHNYRFGKSATVSWHRSQTPVNVIKANRSIDAHTLLFLDLHPEPMTIGHAVENLIAEDAQMKDLYAVGIARAGSGEEVVKCDRLENLKKIDFGKPLHVMVVLAKTLHFMEFECLREFADAPAELERLVAEGGS | soluble |
| MGYIEELRKIVGTRPLILAGVGVAVIDDYGRILLQKRRDGLWGVPGGLLELGESTEEAARREVLEETGLEIGELELIDVFSGQKYFVRLPNGDQYYPVTIVYCTRDIRGGELGEDGKESLEVKFFFLHELPNELSPLFQDLVEHYFGS | soluble |
| MGLDDALIFTRVVEYHSFTQAAQSLGMQKSTVSRRIALLEERLGVRLLNRTTRKLRLTEVGQAYYERCRQIMHDFAEAEQAVMQLQQAPSGLLRITSPIEFGQMFLASLLGDFMRQYPQITAEVELASRSVDPLQEGVDIVIMVGQPEDSTLVARRLLSTSRWLCASPDYLAAHGTPTSVAELAGHRAVLLSTDSQRYWPLSGDSLPCQRVLSCNNITFAREAVVAGAGIAALPALICAESVHSGRLVRLLADVPLPVGELYAVYPSRRFQAMKVKAFLDFLISRLPADTGRLLEPEAARLITSRP | not soluble |
| MNTINANDLKTRGIAAIEAQLEEQPEAIIAVRGKDRYVVMQLEHYYYLRECELTAALAETRADLAAGRCEQESPEAHLARLDTLK | not soluble |
| NYMGNPWTEYMAKYDIEEVHGSGIRVDLGEDAEVAGTQYRLPSGKCPVFGKGIIIENSNTTFLTPVATGNQYLKDGGFAFPPTEPLMSPMTLDEMRHFYKDNKYVKNLDELTLCSRHAGNMIPDNDKNSNYKYPAVYDDKDKKCHILYIAAQENNGPRYCNKDESKRNSMFCFRPAKDISFQNYTYLSKNVVDNWEKVCPRKNLQNAKFGLWVDGNCEDIPHVNEFPAIDLFECNKLVFELSASDQPKQYEQHLTDYEKIKEGFKNKNASMIKSAFLPTGAFKADRYKSHGKGYNWGNYNTETQKCEIFNVKPTCLINNSSYIATTALSHPIEVE | soluble |
| MKVRFLQISDLHFQFQNYDTIVMRDKLLDFIEVLRRESDFDFLLLTGDIAHKGDVYNEDVKEYLNGIIKSMGLSKNNVHLVPGNHDISRDMTRTLLIDSIMKSPNPSEMLDKLDQKATNILVEGQRKFFDFYEDFMGVKYPEEDLHFLYQSEKYNVLSINTCLLSDKKGEEGTLLTAQMKLYKAIRKMNKEKNKGKVLNIAIGHHTLGCIESSERESIKAHFDDYFIDLYLAGHVHDSSFNITANTNENPFLELVSGAIIKDEYATPEFISVDVNLDNGETEVTYYIWNTEYKYWSKNNQGGRRLQEGKLNYKINRLESLIEKEIEDNDDKIDEDEFKSFIIDFHEYRESYKTFTSNFDNQIGLDKKFYDMKSGETFKRKFDSYSEYFGVINHIMDSTSYVSADKKELIAETIVDKYLEFHNQYNNGDEIFVKIVNEIYLECHSVLPYSKALTKKYIKILTCWCIYECEIFNDNKRSVKNDLEHHHHHH | soluble |
| MWNFTLISKVKISREVTMIASKFGIGQQVRHSLLGYLGVVVDIDPVYSLSEPSPDELAVNDELRAAPWYHVVMEDDNGLPVHTYLAEAQLSSELQDEHPEQPSMDELAQTIRKQLQAPRLRNLEHHHHHH | not soluble |
| MAHHHHHHMPQCGTEKHVSAPPSYTGPFVAVVVDLDGTILDDNHRVSDVTKATLYEVASCGVHIIIATGRPREGVAAIEQELNSYFRCNSRVPGRATSLAEVKGFHLVASNGARIYNTTGELISAESIDNSVVRAIYERVTESNINANSEDSMLVSVHQTGAWWVNNVLPEEWLRRKYGTLPEVRQNLSDFPTDGVGKICLRSFNEGTLRTFQKELDTKYEHYITTVMTSDHCLDIMPKGVSKASALRMVGEILNFEPHRDAIAFGDSLNDRDMLESVAKGCIMKNGKNELKELLPHVEVVGCNEEDGVAHKLREVFLLS | not soluble |
| MGSDKIHHHHHHMKDLLNAFENKAPEIVFEWHDAETDATGWAVINSLRGGAAGGGTRMRKGLDKHEVVSLAKTMEIKFAVSGPHIGGAKSGINFDPADPRKNDVLNRWYKAVMPLLKSYYGTGGDLNVCEIKDVIPNTEEYGLWHPQEGIVNGHFHPSEELRIQKICQLRGGVTMPVVNPAYTPDPAKKYLVADLITGFGVSESVRHYYEIKGDSVAGKRVIVQGWGNVGGTAAYYLAANGAKVVGIIDRAAGLVSTEGLTFEQVKELLAKRVGNTLTGDNLLSAEDTQKLVWSVGADVFLPCAASRLVTREQVATLKDNGLGLIACGANVPFRDDNIFYGPTAEYADGVVDVIPDFIANCGMARAFNYLMSSKVDLDESAIFQDVSEVIRNALTESCAAATGKNHLLAASLKTVLHKLMH | not soluble |
| MHFFDTHTHLNYLQQFTGEPLSQLIDNAKQADVQKILVVAVKEADFKTIQNMTALFPDNLCYGLGLHPLYIQEHAENDLILLEQALKNRDTNCTAVAEIGLERAIPDLLTDELWAKQCHFFESQLYLAKQFNLPVNIHSRKTHDQIFTFLKRIPLSKLGVVHGFSGSYDQAKRFVDLGYKIGVGGTITYERANKTRQAIAKLPLDALVLETDSPDMPVFGFQGQPNRPERIVESFKALCTLRNEPAELIKKLTWENACQIFSLEHHHHHH | not soluble |
| MAVDVFITAPSSTPLACEMTISKLVLASGSPRRRELLAQMGYQFEVVVPNVEEKRAAAESPAQYVERLSRDKALAGAALVAAEAVVIGSDTIVVKDQQVLEKPRDFADAKRMLLKLSGSQHQVMTGVSVTCRGITHSVVVTTEVWFKTLSEQEIEAYWQSGEPCDKAGSYGIQGLGGRFVTRIEGSYHAVVGLPLYETDQLLHKF | not soluble |
| MGSDKIHHHHHHMTPIPFYVPVGNECELFETAWQRRLPLLLKGPTGCGKTRFVTHMAARLQRPLFTVSCHDDLTAADLTGRFLIKGGETVWVDGPLTRAIREGGICYLDEIVEARKDVTVVLHPLTDDRRMLPLERTNEILHAPDTFMLVVSYNPGYQNILKSLKPSTRQRFVALSFNFPPPEIELEIIASESGLARDRCTALVNLATRLRLLKDVDLEESVSTRLLVYCATLMAAGLDPYQAAQAALVEPLSDETEVQQGLLELIHATFG | not soluble |
| MEMRGKITKINENGLGVLGNILVPFAYPGDEVEVTETRERFGKIIARDFKLMTPSPLRIPGKCSHFGKCGGCLWQGLRYREQLKLKEEIFKRITGIEAEIKGSPRIWYFRNISNFIITVNGIGFKEFGMPKTVVNIRECPIFSERTPKYLKALKDFLRESNLKPWNWREGDVHYLQVREGKFTGEVMVNIIAHVPLNYREALMEAFNFADSIYWSLKADKKDDPRGFPTLVLGNEVIREKVEGITYLIHPSVFFQTNSYALPLLLKSVEKFCEGSKVLDLYSGIGTLSLYLAKRGFEVTGVEVNGTSVEMAKRSAEINSINATFIQGKAEDAELEGYETLIVDPPRKGLKEFSRRIVKKGPNTLIYVSCNPLRFILDYRNYLSEAYKVDDALLIDMFPHTPHIEAVIKLVRR | soluble |
| MPSSIICDVSHEGEASGGPSPSSRISNGFSHTVCDLHHNFPIVKNRRKYHNSISTQSSSSTTTSLERISTSTCTSTSSSASDAIISRAEKDVQTFLVSDESTTGDHEEEEEDDEDGDDESDHNDYDYEDDGERSEHDHEQTDNDDDEDEIEPFVSSWCFAMGTQRSVMSSVGEKAPKSNVKSMEDWELDVVERAHRESHLAELYADLSWRFYTHPPTSFCLARVFLRHGLTGNEGVSSWKLPRKANRRNSSCSSISSVSESSSPSALDESTLTKILPTDNFRGGRGFASPSPPTSLLSEPLSRMDVLSEKIWDYHNKVSQTDEMLQRKLHLRDMLYTAISPVFPLSGLYVVGSSLNGFGNNSSDMDLCLMITNKDLDQKNDAVVVLNLILSTLQYEKFVESQKLILAKVPILRINFAAPFDDITVDLNANNSVAIRNTHLLCYYSSYDWRVRPLVSVVKEWAKRKGINDANKSSFTSYSLVLMVIHFLQCGPTKVLPNLQQSYPNRFSNKVDVRTLNVTMALEEVADDIDQSLSEKTTLGELLIGFLDYYANEFNYDRDAISIRQGRRVERAALAVRPKIHSNSEGDKETPPPSSSASTSSIHNGGTPGIPMHHSISNPHFWRSQWRCVCIEEPFTNSNTAHSIYDEMVFEAIKKAFREAHGELQHNHDLDKLMECEPIKASTTNTGAAVFAATYEGERPLAQQPNTIACASLRVLNSIPVSSGPGHYHYQQQSNQNLSRPQRPGSNQGYQMNNNRGFNGNNQQQHQNRRSFNNQSSSNPGNGSTGPRSSRSNENVRDSSRQQNSQKGSSGVSVSKENVASTTGVPVDKKQQNSNRKDDGNRTKRSPMVQSPEPAKTKSEKTPMASSNVSQ | not soluble |
